Measurements from paper PMC4754349, “Tripartite assembly of RND multidrug efflux pumps” (Nature Communications, 2016).

B1: MexB reconstituted into nanodiscs (MexB–ND) (natural protein)
chain: MSKFFIDRPIFAWVIALVIMLAGGLSILSLPVNQYPAIAPPAIAVQVSYPGASAETVQDTVVQVIEQQMNGIDNLRYISSESNSDGSMTITVTFEQGTDPDIAQVQVQNKLQLATPLLPQEVQRQGIRVTKAVKNFLMVVGVVSTDGSMTKEDLSNYIVSNIQDPLSRTKGVGDFQVFGSQYSMRIWLDPAKLNSYQLTPGDVSSAIQAQNVQISSGQLGGLPAVKGQQLNATIIGKTRLQTAEQFENILLKVNPDGSQVRLKDVADVGLGGQDYSINAQFNGSPASGIAIKLATGANALDTAKAIRQTIANLEPFMPQGMKVVYPYDTTPVVSASIHEVVKTLGEAILLVFLVMYLFLQNFRATLIPTIAVPVVLLGTFGVLAAFGFSINTLTMFGMVLAIGLLVDDAIVVVENVERVMAEEGLSPREAARKSMGQIQGALVGIAMVLSAVFLPMAFFGGSTGVIYRQFSITIVSAMALSVIVALILTPALCATMLKPIEKGDHGEHKGGFFGWFNRMFLSTTHGYERGVASILKHRAPYLLIYVVIVAGMIWMFTRIPTAFLPDEDQGVLFAQVQTPPGSSAERTQVVVDSMREYLLEKESSSVSSVFTVTGFNFAGRGQSSGMAFIMLKPWEERPGGENSVFELAKRAQMHFFSFKDAMVFAFAPPSVLELGNATGFDLFLQDQAGVGHEVLLQARNKFLMLAAQNPALQRVRPNGMSDEPQYKLEIDDEKASALGVSLADINSTVSIAWGSSYVNDFIDRGRVKRVYLQGRPDARMNPDDLSKWYVRNDKGEMVPFNAFATGKWEYGSPKLERYNGVPAMEILGEPAPGLSSGDAMAAVEEIVKQLPKGVGYSWTGLSYEERLSGSQAPALYALSLLVVFLCLAALYESWSIPFSVMLVVPLGVIGALLATSMRGLSNDVFFQVGLLTTIGLSAKNAILIVEFAKELHEQGKGIVEAAIEACRMRLRPIVMTSLAFILGVVPLAISTGAGSGSQHAIGTGVIGGMVTATVLAIFWVPLFYVAVSTLFKDEASKQQASVEKGQ
notes: MexB, inner membrane RND transporter of Pseudomonas aeruginosa; called native; One trimer in each nanodisc (POPC, MSP1E3D1); also called RND; source: E. coli C43ΔacrB, purified (HisTrap HP, gel filtration Superose 6), reconstituted into POPC/MSP1E3D1 nanodiscs
B2: OprM reconstituted into nanodiscs (OprM–ND) (natural protein)
chain: CSLIPDYQRPEAPVAAAYPQGQAYGQNTGAAAVPAADIGWREFFRDPQLQQLIGVALENNRDLRVAALNVEAFRAQYRIQRADLFPRIGVDGSGTRQRLPGDLSTTGSPAISSQYGVTLGTTAWELDLFGRLRSLRDQALEQYLATEQAQRSAQTTLVASVATAYLTLKADQAQLQLTKDTLGTYQKSFDLTQRSYDVGVASALDLRQAQTAVEGARATLAQYTRLVAQDQNALVLLLGSGIPANLPQGLGLDQTLLTEVPAGLPSDLLQRRPDILEAEHQLMAANASIGAARAAFFPSISLTANAGTMSRQLSGLFDAGSGSWLFQPSINLPIFTAGSLRASLDYAKIQKDINVAQYEKAIQTAFQEVADGLAARGTFTEQLQAQRDLVKASDEYYQLADKRYRTGVDNYLTLLDAQRSLFTAQQQLITDRLNQLTSEVNLYKALGGGWNQQTVTQQQTAKKEDPQA
notes: OprM, outer membrane factor of Pseudomonas aeruginosa; called native; One trimer in each nanodisc (POPC, MSP1D1); also called OMF; source: E. coli C43ΔacrB, purified (HisTrap HP, gel filtration Superose 6), reconstituted into POPC/MSP1D1 nanodiscs
B3: lipidated MexA (natural protein)
chain: CGKSEAPPPAQTPEVGIVTLEAQTVTLNTELPGRTNAFRIAEVRPQVNGIILKRLFKEGSDVKAGQQLYQIDPATYEADYQSAQANLASTQEQAQRYKLLVADQAVSKQQYADANAAYLQSKAAVEQARINLRYTKVLSPISGRIGRSAVTEGALVTNGQANAMATVQQLDPIYVDVTQPSTALLRLRRELASGQLERAGDNAAKVSLKLEDGSQYPLEGRLEFSEVSVDEGTGSVTIRAVFPNPNNELLPGMFVHAQLQEGVKQKAILAPQQGVTRDLKGQATALVVNAQNKVELRVIKADRVIGDKWLVTEGLNAGDKIITEGLQFVQPGVEVKTVPAKNVASAQKADAAPAKTDSKG
modifications: lipidated (palmitoylation of an N-terminal cysteinyl residue)
notes: MexA, periplasmic membrane fusion protein of Pseudomonas aeruginosa, native lipidated form, 39 kDa monomer; also called native lipid-modified MFP; source: E. coli C43ΔacrB, purified (HisTrap HP, gel filtration Superose 6), in 0.03% DDM

Columns and labels:
[1] = molecular target: the molecule itself; experiment: negative-stain electron microscopy, single-particle analysis; nanodisc-reconstituted RND and OMF mixed with lipidated MFP (1:1:10, or SEC-purified complex), stained with 2% uranyl acetate on carbon-coated grids; reference-free two-dimensional class averages (SPIDER)
[2] = molecular target: B1; experiment: native gel or EMSA; native PAGE, 4–15% gradient gel, Tris-Glycine running buffer, silver stained; nanodisc-reconstituted MexB and OprM mixed 1:1, with or without lipidated MexA (1:1:10 molar ratio); settings: both partners purified
[3] = molecular target: B2; experiment: as above; settings: both partners purified

| Binder | binding result [1] | binding result [2] | binding result [3] |
| --- | --- | --- | --- |
| B1 | binds |  |  |
| B2 | binds |  |  |
| B3 |  | binds | binds |
